Results as given in patent US20240409619A1.

Target: SARS-COV-2 spike protein, isolate USA-WA1/2020, on pseudotyped virus (SARS-COV-2) (UniProt P0DTC2)
Test: cell-based or functional assay

Substance: DMAb 2130_FcTM (antibody)
- serum potency (IC50) against USA-WA1/2020 pseudovirus: 1 to 2 ng/mL
